For one molecule, koff and Kd results are on record in paper PMC11117068 (2024).

Assay [1] has as its target T1, complement C3b (UniProt P01024 749-1663; P01024 749-1663). Kind of assay: SPR. A general note: Surface plasmon resonance follows binding to a sensor surface in real time, without labels.
The target of assay [2] is T1, complement C3b. Kind of assay: SPR. This is another data set of the same source.

T1 sequence (P01024 23-667, chain 1 of 2): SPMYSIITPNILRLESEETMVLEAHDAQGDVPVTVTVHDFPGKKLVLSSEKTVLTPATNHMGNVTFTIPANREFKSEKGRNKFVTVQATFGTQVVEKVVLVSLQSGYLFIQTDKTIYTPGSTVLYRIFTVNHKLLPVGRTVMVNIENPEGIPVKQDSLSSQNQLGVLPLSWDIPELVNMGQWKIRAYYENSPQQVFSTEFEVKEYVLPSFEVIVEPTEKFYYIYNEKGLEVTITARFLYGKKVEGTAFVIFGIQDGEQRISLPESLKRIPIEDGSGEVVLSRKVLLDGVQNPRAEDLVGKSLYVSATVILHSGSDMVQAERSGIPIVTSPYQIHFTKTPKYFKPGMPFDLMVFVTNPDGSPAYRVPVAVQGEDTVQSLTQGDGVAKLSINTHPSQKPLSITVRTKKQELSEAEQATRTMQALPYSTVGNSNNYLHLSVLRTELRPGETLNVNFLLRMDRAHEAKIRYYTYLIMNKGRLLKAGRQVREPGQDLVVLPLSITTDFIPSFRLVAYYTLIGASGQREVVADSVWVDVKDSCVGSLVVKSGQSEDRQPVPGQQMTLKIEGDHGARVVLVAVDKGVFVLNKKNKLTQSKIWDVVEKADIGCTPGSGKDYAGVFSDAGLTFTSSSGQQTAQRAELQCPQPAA
T1 sequence (P01024 749-1663, chain 2 of 2): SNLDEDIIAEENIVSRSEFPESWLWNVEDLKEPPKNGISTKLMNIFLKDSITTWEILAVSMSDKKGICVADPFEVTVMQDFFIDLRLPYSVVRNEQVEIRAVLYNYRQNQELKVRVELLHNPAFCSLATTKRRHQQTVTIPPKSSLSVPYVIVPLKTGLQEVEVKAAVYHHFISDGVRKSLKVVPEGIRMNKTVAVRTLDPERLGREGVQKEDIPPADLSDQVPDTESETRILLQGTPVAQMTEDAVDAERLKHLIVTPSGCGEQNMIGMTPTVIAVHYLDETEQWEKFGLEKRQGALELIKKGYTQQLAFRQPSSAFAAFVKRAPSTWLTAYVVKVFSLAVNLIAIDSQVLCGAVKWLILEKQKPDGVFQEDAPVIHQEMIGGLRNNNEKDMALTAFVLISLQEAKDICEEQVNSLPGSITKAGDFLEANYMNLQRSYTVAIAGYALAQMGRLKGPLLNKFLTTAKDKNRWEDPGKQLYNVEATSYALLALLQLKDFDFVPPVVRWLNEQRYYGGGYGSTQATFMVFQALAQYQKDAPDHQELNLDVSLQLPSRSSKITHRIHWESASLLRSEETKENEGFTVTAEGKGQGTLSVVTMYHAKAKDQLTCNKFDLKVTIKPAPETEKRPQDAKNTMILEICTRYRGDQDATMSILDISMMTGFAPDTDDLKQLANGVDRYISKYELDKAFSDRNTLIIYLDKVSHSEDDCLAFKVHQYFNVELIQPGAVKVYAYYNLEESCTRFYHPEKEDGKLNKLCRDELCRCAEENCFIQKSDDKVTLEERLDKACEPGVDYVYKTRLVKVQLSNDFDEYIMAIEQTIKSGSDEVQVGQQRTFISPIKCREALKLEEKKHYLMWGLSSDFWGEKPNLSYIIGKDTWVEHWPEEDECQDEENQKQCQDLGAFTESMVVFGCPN

B1: serum-derived human factor H (sd-FH) (natural protein)
chain: EDCNELPPRRNTEILTGSWSDQTYPEGTQAIYKCRPGYRSLGNVIMVCRKGEWVALNPLRKCQKRPCGHPGDTPFGTFTLTGGNVFEYGVKAVYTCNEGYQLLGEINYRECDTDGWTNDIPICEVVKCLPVTAPENGKIVSSAMEPDREYHFGQAVRFVCNSGYKIEGDEEMHCSDDGFWSKEKPKCVEISCKSPDVINGSPISQKIIYKENERFQYKCNMGYEYSERGDAVCTESGWRPLPSCEEKSCDNPYIPNGDYSPLRIKHRTGDEITYQCRNGFYPATRGNTAKCTSTGWIPAPRCTLKPCDYPDIKHGGLYHENMRRPYFPVAVGKYYSYYCDEHFETPSGSYWDHIHCTQDGWSPAVPCLRKCYFPYLENGYNQNYGRKFVQGKSIDVACHPGYALPKAQTTVTCMENGWSPTPRCIRVKTCSKSSIDIENGFISESQYTYALKEKAKYQCKLGYVTADGETSGSITCGKDGWSAQPTCIKSCDIPVFMNARTKNDFTWFKLNDTLDYECHDGYESNTGSTTGSIVCGYNGWSDLPICYERECELPKIDVHLVPDRKKDQYKVGEVLKFSCKPGFTIVGPNSVQCYHFGLSPDLPICKEQVQSCGPPPELLNGNVKEKTKEEYGHSEVVEYYCNPRFLMKGPNKIQCVDGEWTTLPVCIVEESTCGDIPELEHGWAQLSSPPYYYGDSVEFNCSESFTMIGHRSITCIHGVWTQLPQCVAIDKLKKCKSSNLIILEEHLKNKKEFDHNSNIRYRCRGKEGWIHTVCINGRWDPEVNCSMAQIQLCPPPPQIPNSHNMTTTLNYRDGEKVSVLCQENYLIQEGEEITCKDGRWQSIPLCVEKIPCSQPPQIEHGTINSSRSSQESYAHGTKLSYTCEGGFRISEENETTCYMGKWSSPPQCEGLPCKSPPEISHGVVAHMSDSYQYGEEVTYKCFEGFGIDGPAIAKCLGEKWSHPPSCIKTDCLSLPSFENAIPMGEKKDVYKAGEQVTYTCATYYKMDGASNVTCINSRWTGRPTCRDTSCVNPPTVQNAYIVSRQMSKYPSGERVRYQCRSPYEMFGDEEVMCLNGNWTEPPQCKDSTGKCGPPPPIDNGDITSFPLSVYAPASSVEYQCQNLYQLEGNKRITCRNGQWSEPPKCLHPCVISREIMENYNIALRWTAKQKLYSRTGESVEFVCKRGYRLSSRSHTLRTTCWDGKLEYPTCAKR
modifications: native N-linked glycans, diantennary and a small number of triantennary sialylated glycans
As usually defined, the koff is the rate constant with which the complex falls apart. Read a high koff as a short-lived complex. As a reminder, the Kd is the concentration at which binding is half-saturated. Low readings indicate tighter binding, high ones weaker binding. B1 displayed a koff with complement C3b [1] of 0.0233 s⁻¹. Also, the Kd in the assay with complement C3b [2] worked out at 11.3 nM.
